Among the data in patent publication US20020137113A1 are IC50 values, retold here.

Assay [1] deals with gD.trkB.IgG (gD tagged trkB.IgG fusion protein) (Herpes simplex virus; human) (UniProt Q16620). Description: competitive displacement of iodinated NT5 from gD tagged trkB.IgG in 293 cell supernatant.
Assay [2] has as its target trkC.IgG (untagged trk.IgG fusion of the trkC extracellular domain and IgG-1 Fc) (human) (UniProt Q16288). As to the kind of experiment: competitive displacement of iodinated NT3 from trkC.IgG in 293 cell supernatant.
For assay [3], the target named is gD.trkC.IgG (gD tagged trkC.IgG fusion protein) (Herpes simplex virus; human) (UniProt Q16288). As to the kind of experiment: competitive displacement of iodinated NT3 from gD tagged trkC.IgG in 293 cell supernatant.

B1: neurotrophin 5 (NT5) (ligand, UniProt P34130 81-210, looked up)
chain: GVSETAPASRRGELAVCDAVSGWVTDRRTAVDLRGREVEVLGEVPAAGGSPLRQYFFETRCKADNAEEGGPGAGGGGCRGVDRRHWVSECKAKQSYVRALTADAQGRVGWRWIRIDTACVCTLLSRTGRA
Turning to B1, the IC50 in assay [1] worked out at 0.0121 nM.

B2: neurotrophin 3 (NT3) (ligand, UniProt P20783 139-257, looked up)
chain: YAEHKSHRGEYSVCDSESLWVTDKSSAIDIRGHQVTVLGEIKTGNSPVKQYFYETRCKEARPVKNGCRGIDDKHWNSQCKTSQTYVRALTSENNKLVGWRWIRIDTSCVCALSRKIGRT
For the molecule B2, the values for the IC50 in assay [2] and in assay [3] were 0.0311 nM and 0.0302 nM, respectively.

The IC50 is the concentration at which inhibition is half-maximal. Lower therefore signals higher potency.
